Test: 35S pulse-chase, HA immunoprecipitation from lysate and media
Conditions: glycan lost; control: wild type Cab45-HA

B1: Cab45: Cab45-N40G (protein)
parent chain: MVWPWVAMASRWGPLIGLAPCCLWLLGAVLLMDASARPANHSSTRERVANREENEILPPDHLNGVKLEMDGHLNRGFHQEVFLGKDLGGFDEDAEPRRSRRKLMVIFSKVDVNTDRKISAKEMQRWIMEKTAEHFQEAMEESKTHFRAVDPDGDGHVSWDEYKVKFLASKGHSEKEVADAIRLNEELKVDEETQEVLENLKDRWYQADSPPADLLLTEEEFLSFLHPEHSRGMLRFMVKEIVRDLDQDGDKQLSVPEFISLPVGTVENQQGQDIDDNWVKDRKKEFEELIDSNHDGIVTAEELESYMDPMNEYNALNEAKQMIAVADENQNHHLEPEEVLKYSEFFTGSKLVDYARSVHEEF
- expression_or_secretion: no change

— paper PMC9351455
